Reference: patent publication US20070015231A1, “Assay for protein tyrosine phosphatases” (CEPTYR, Inc., priority 2000, published 2007)
Substitutions are numbered along the chain they refer to. In names and notes the source's numbering stands. Read-outs that look alike come from different tables or passages of the source. One block for each molecule: values may come before it. Square brackets hold non-standard residues; d marks the D form. Ends that are not written are not given here. pY = N[C@@H](Cc1ccc(OP(=O)(O)O)cc1)C(=O)O

Columns and labels:
[1] = molecular target: T1, PTP1B(C215S) (Homo sapiens, UniProt P18031, C215S); test: PTP-1B (CS) binding assay: fluorescence polarization binding of fluorescein-labeled phosphotyrosyl peptides; settings: Table 1; midpoint of bound/unbound transition (apparent Kd)
T1 construct: PTP1B proteins (wild type and mutant forms) comprising amino acids 1-321 were expressed in E. coli; made in house; host or cells: E. coli
T1 sequence (P18031 1-321 C215S): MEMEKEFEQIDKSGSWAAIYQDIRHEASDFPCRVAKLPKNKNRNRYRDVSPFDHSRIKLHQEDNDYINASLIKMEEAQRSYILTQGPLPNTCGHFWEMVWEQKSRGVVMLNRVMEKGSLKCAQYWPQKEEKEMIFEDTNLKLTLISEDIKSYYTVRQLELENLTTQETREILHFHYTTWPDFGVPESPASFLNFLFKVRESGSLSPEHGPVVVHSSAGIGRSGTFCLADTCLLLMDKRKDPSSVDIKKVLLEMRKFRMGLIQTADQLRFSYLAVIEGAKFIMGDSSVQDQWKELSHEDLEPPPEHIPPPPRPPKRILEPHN
Method: (§1) Two assay parameters were measured: (1) the dynamic range of the signal (i.e. the difference between polarization values of the bound and the unbound fluorescent substrate) and (2) the midpoint of the transition between bound and unbound that represents the apparent Kd (i.e. affinity) of each binding mutant for each peptide.
(§2) Assays were set up at room temperature in black polypropylene 96 well microtiter plates (Polyfiltronics, Whatman, U. K.) by the sequential addition of 40 μl of Assay Buffer, 40 μl of diluted binding protein and 40 μl of 0.3 nM fluorescein-labeled substrate peptide. After 15 min plates were read in a Criterion Analyst™ (LJL BioSystems, Inc., Sunnyvale, Calif.) in fluorescence polarization detection mode using the parameters listed as follows:
(§3) To obtain values for background fluorescence, assays were set up as above except the fluorescein-labeled substrate was replaced with Assay Buffer. To determine the fluorescence polarization values for the unbound substrate peptide, assays were set up as above except that the 40 μl of diluted binding protein was replaced with Assay Buffer.

[2] = molecular target: T2, PTP1B(D181A) (Homo sapiens, UniProt P18031, D181A); test: PTP-1B (DA) binding assay: fluorescence polarization binding of fluorescein-labeled phosphotyrosyl peptides; settings: Table 2; midpoint of bound/unbound transition (apparent Kd)
T2 construct: PTP1B proteins (wild type and mutant forms) comprising amino acids 1-321 were expressed in E. coli; made in house; host or cells: E. coli
T2 sequence (P18031 1-321 D181A): T1 sequence (P18031 1-321 C215S) with D181A, S215C
Method: as §1, §2, §3

[3] = molecular target: LAR (Homo sapiens, UniProt P10586); settings: insulin receptor 1142-1152 peptide, pTyr1146; cited from earlier work
[4] = molecular target: T3, CD45 (Homo sapiens, UniProt P08575); settings: p56lck residues 500-509 peptide; read-out: Km toward CD45; cited from earlier work
T3 sequence (P08575 26-1306): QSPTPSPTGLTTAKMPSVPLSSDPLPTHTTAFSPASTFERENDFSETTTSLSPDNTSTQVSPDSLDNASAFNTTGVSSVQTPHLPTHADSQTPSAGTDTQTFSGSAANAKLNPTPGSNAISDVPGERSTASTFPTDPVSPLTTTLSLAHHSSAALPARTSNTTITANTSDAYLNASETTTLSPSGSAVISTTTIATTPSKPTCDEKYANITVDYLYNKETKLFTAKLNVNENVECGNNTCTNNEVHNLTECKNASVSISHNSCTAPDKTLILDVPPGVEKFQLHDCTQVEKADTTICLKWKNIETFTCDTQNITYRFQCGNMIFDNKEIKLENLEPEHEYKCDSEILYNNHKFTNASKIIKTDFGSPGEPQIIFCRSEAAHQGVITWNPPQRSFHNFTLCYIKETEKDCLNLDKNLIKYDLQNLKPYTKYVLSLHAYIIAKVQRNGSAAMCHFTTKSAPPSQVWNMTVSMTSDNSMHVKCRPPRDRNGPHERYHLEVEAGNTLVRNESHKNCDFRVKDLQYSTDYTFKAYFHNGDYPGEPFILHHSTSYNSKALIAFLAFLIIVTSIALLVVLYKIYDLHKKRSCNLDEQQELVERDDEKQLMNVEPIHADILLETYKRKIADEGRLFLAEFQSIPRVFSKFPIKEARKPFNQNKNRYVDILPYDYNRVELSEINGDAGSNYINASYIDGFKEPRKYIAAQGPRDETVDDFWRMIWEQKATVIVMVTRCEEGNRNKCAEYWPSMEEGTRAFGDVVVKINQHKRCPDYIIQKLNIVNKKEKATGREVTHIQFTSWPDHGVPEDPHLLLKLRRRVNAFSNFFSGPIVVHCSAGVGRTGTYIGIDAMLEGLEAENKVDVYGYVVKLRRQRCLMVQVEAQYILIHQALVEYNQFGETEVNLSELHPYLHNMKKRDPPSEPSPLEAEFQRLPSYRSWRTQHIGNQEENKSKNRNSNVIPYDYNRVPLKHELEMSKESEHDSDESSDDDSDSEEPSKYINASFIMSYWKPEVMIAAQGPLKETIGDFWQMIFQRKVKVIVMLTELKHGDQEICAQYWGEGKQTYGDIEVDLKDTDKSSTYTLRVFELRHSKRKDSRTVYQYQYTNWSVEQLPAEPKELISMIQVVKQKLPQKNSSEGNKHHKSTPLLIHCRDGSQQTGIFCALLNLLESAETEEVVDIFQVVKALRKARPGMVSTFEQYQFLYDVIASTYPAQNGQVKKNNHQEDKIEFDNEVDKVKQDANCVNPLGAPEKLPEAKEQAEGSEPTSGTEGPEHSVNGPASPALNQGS

[5] = molecular target: T4, C215S PTP1B (Homo sapiens, UniProt P18031, C215S); test: Inhibition of fluorescent EGF receptor peptide binding to CS substrate binding mutant (FP); settings: Table 3; fluorescein-labeled EGF receptor peptide
T4 construct: PTP1B proteins (wild type and mutant forms) comprising amino acids 1-321 were expressed in E. coli; made in house; host or cells: E. coli
T4 sequence (P18031 1-321 C215S): T1 sequence (P18031 1-321 C215S)
Method: (§4) To the test agents was added 40 μl of 3 nM CS or DA binding mutant of PTP1B in Assay Buffer. Plates were shaken for 30 sec to mix the two solutions. After another 12.5 minutes 40 μl of 3 nM fluorescein-labeled EGF receptor peptide was added and the solutions mixed for 30 sec. After 12.5 minutes of incubation the plates were read as described in Example 3.

[6] = molecular target: T5, D181A PTP1B (Homo sapiens, UniProt P18031, D181A); test: Inhibition of fluorescent EGF receptor peptide binding to DA substrate binding mutant (FP)
T5 construct: PTP1B proteins (wild type and mutant forms) comprising amino acids 1-321 were expressed in E. coli; made in house; host or cells: E. coli
T5 sequence (P18031 1-321 D181A): T1 sequence (P18031 1-321 C215S) with D181A, S215C
Method: as §4

[7] = molecular target: T6, PTP1B (Homo sapiens, UniProt P18031); test: PTP catalytic assay of F-ERP-P dephosphorylation with alternate reaction terminator molecules (FP); type: biochemical
T6 construct: PTP1B proteins (wild type and mutant forms) comprising amino acids 1-321 were expressed in E. coli; made in house; host or cells: E. coli
T6 sequence (P18031 1-321): T1 sequence (P18031 1-321 C215S) with S215C
Method: The ability of each reaction terminator molecule also was assessed in the presence and absence of vanadate (a well known, nonspecific PTP inhibitor).
Assays were set up in black polypropylene plates with 20 μl of 25 mM Tris HCl pH 7.5 and 20 μl of 300 nM F-ERP-P in 25 mM Tris HCl pH 7.5, 1 mM EDTA, 1 mM DTT, 0.25 mg/ml ovalbumin (TEOD buffer). […] Plates were read using the Polarstar instrument from BMG Lab Technologies using the following settings:
As in Example 3, wells were set up to measure background fluorescence to allow proper calculation of mP values and other wells were set up without addition of terminator reagent to assess the minimum polarization value of the unbound fluorescent phosphotyrosyl peptide (F-ERP-P).

[8] = molecular target: fluorescein-labeled EGF receptor derived phosphopeptide D-A-D-E-pY-L-NH2 (human); test: fluorescence polarization, mutant PTP titrated against fluorescein-labeled peptide in solution
[9] = molecular target: fluorescein-labeled insulin receptor derived phosphopeptide T-R-D-I-pY-E-T-D-Y-Y-R (human); test: as above
[10] = molecular target: fluorescein-labeled EGF receptor derived phosphopeptide D-A-D-E-pY-L-NH2 (human); test: fluorescence polarization, mutant PTP titrated against fluorescein-labeled peptide in solution (midpoint = apparent Kd)
[11] = molecular target: fluorescein-labeled insulin receptor derived phosphopeptide T-R-D-I-pY-E-T-D-Y-Y-R (human); test: as above
[12] = molecular target: T7, fluorescein-labeled EGF receptor derived phosphopeptide D-A-D-E-pY-L-NH2 (not fully specified)
T7 chain: DADEYL

[13] = molecular target: fluorescein-labeled EGF receptor derived phosphopeptide D-A-D-E-pY-L-NH2 (human); test: fluorescence polarization, C215S PTP1B as reaction terminator (Polarstar reader)
[14] = Table 3, fluorescein-labeled EGF receptor peptide, read-out: D181A IC50

Sequence of LAR (P10586 30-1907, species assumed): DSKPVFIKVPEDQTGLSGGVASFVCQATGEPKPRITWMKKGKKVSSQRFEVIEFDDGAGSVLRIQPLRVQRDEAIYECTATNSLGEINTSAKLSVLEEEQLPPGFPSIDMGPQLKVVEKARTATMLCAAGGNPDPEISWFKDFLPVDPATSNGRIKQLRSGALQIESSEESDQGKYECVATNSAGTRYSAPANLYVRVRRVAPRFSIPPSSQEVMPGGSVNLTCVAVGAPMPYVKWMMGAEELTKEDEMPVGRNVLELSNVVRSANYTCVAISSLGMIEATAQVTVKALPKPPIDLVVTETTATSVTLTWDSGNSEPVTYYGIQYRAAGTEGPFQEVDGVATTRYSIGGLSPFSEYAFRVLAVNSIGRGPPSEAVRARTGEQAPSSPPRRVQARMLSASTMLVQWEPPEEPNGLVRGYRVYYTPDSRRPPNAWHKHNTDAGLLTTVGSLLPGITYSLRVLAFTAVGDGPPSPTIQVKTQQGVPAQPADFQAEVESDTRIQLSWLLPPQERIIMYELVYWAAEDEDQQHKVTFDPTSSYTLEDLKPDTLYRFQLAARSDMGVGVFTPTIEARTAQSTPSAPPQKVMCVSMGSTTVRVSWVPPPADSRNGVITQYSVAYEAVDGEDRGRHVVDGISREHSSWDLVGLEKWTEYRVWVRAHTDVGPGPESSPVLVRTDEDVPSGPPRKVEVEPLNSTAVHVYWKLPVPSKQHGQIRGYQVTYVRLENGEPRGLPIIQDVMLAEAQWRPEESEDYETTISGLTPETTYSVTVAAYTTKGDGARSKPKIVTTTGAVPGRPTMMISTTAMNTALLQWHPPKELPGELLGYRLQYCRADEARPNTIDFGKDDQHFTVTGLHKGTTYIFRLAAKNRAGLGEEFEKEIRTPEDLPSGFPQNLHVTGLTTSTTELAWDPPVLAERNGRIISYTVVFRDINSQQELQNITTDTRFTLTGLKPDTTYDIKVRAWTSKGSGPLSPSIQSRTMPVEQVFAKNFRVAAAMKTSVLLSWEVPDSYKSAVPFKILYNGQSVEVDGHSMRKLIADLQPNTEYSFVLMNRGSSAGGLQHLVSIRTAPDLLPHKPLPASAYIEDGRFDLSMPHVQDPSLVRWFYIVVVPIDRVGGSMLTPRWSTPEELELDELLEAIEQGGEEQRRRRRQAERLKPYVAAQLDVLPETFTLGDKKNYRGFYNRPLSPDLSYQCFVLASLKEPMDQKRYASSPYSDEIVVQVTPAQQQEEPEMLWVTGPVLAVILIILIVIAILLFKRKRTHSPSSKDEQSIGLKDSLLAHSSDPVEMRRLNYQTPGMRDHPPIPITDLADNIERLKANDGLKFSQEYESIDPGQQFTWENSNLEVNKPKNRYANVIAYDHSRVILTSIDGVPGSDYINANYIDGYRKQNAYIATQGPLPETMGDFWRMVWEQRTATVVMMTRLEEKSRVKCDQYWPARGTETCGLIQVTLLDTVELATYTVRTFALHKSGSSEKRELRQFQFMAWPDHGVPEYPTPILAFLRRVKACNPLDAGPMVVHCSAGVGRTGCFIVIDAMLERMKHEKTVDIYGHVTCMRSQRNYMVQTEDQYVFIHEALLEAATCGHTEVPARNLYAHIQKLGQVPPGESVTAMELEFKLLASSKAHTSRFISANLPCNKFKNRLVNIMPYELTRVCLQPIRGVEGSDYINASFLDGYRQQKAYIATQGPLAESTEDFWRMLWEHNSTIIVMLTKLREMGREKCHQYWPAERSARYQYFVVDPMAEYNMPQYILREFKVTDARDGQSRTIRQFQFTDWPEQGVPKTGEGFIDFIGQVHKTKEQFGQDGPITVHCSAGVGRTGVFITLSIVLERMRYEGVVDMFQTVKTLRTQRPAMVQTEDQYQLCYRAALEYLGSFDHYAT

Molecule: CC[C@H](C)[C@H](NC(=O)[C@H](CC(=O)O)NC(=O)[C@H](CCCNC(=N)N)NC(=O)[C@@H](NC(=O)c1ccc2c(c1)C(=O)OC21c2ccc(O)cc2Oc2cc(O)ccc21)[C@@H](C)O)C(=O)N[C@@H](Cc1ccc(OP(=O)(O)O)cc1)C(=O)N[C@@H](CCC(=O)O)C(=O)N[C@H](C(=O)N[C@@H](CC(=O)O)C(=O)N[C@@H](Cc1ccc(O)cc1)C(=O)N[C@@H](Cc1ccc(O)cc1)C(=O)N[C@@H](CCCNC(=N)N)C(=O)O)[C@@H](C)O [F-IR-P, T-R-D-1-pY-E-T-D-Y-Y-R]
- EC50 [1]: 1.16 nM
- EC50 [2]: 0.508 nM
- Km [3]: 27 µM

Molecule: A-T-E-G-Q-pY-Q-P-Q-P (ATEGQ[pY]QPQP; also: fluorescein label) [F-lck-P]
- Km [4]: 130 µM

Molecule: [Na+].[Na+].[Na+].[O]=[V]([O-])([O-])[O-] [sodium ortho vanadate]
- effect of inclusion in the terminator mixes on observed endpoints ([7]; 2 mM in terminator solution with C215S PTP1B or G104): did not appear to have any additive effect

Molecule: OO [H2O2, hydrogen peroxide]
- IC50 [5]: 250000 nM
- IC50 [6, 14]: 10000 nM
- IC50 ([6]; read-out: IC50 for inhibition of the DA substrate binding mutant): ~10000 nM

B1: PTP1B (wild type), amino acids 1-321 (protein)
chain: T1 sequence (P18031 1-321 C215S) with S215C
- time to complete dephosphorylation of F-ERP-P (fluorescence polarization catalytic assay) [12]: under these conditions the dephosphorylation of F-ERP-P was complete by 20 minutes

The next lines start with results.

- IC50 [5]: 150000 nM
- IC50 [6, 14]: 120000 nM
Molecule: N[C@@H](Cc1ccc(OP(=O)(O)O)cc1)C(=O)O [P-Tyr, phosphotyrosine]

- Peak Mp [8]: 269 mP
- Peak Mp [9]: 132 mP
- EC50 [10]: 1.07 nM
- EC50 [11]: 0.508 nM
Molecule: PTP1B(D181A), amino acids 1-321 (from UniProt P18031 1-321) (enzyme)

- maximum polarization value for bound peptide [13]: 300 mP
- Peak mP [8]: 316 mP
- Peak mP [9]: 151 mP
- EC50 [10]: 0.965 nM
- EC50 [11]: 1.16 nM
B2: PTP1B(C215S), amino acids 1-321 (protein)
chain: T1 sequence (P18031 1-321 C215S)
- termination of PTP1B-mediated dephosphorylation of F-ERP-P [12]: monoclonal antiphosphotyrosine antibody G104 and the C215S-PTP1B binding mutant were equally effective at stopping the dephosphorylation reaction
- stopping of the dephosphorylation reaction (reaction terminator) ([7]; reactions stopped after 11 min, polarization stable for 14 hours): equally effective at stopping the dephosphorylation reaction
